Consider 3 substances from patent US10087225B2, “Formulation of MK2 inhibitor peptides” (MOERAE MATRIX, INC., priority 2015, dated 2018).

Some targets named below: IR(h), activated (Homo sapiens, UniProt P06213); Fms(Y969C)(h) (Homo sapiens, UniProt P07333, Y969C); MRCKα(h) (Homo sapiens, UniProt Q5VT25); TrkA(h) (Homo sapiens, UniProt P04629); FGFR1(V561M)(h) (Homo sapiens, UniProt P11362, V561M); HIPK1(h) (Homo sapiens, UniProt Q86Z02).
What all share (experiment): Kinase Profiling Assay
Holding throughout (type): biochemical

A further assay concerns the target T1, TAO1(h) (Homo sapiens, UniProt Q7L7X3).
T1 sequence (Q7L7X3 1-1001): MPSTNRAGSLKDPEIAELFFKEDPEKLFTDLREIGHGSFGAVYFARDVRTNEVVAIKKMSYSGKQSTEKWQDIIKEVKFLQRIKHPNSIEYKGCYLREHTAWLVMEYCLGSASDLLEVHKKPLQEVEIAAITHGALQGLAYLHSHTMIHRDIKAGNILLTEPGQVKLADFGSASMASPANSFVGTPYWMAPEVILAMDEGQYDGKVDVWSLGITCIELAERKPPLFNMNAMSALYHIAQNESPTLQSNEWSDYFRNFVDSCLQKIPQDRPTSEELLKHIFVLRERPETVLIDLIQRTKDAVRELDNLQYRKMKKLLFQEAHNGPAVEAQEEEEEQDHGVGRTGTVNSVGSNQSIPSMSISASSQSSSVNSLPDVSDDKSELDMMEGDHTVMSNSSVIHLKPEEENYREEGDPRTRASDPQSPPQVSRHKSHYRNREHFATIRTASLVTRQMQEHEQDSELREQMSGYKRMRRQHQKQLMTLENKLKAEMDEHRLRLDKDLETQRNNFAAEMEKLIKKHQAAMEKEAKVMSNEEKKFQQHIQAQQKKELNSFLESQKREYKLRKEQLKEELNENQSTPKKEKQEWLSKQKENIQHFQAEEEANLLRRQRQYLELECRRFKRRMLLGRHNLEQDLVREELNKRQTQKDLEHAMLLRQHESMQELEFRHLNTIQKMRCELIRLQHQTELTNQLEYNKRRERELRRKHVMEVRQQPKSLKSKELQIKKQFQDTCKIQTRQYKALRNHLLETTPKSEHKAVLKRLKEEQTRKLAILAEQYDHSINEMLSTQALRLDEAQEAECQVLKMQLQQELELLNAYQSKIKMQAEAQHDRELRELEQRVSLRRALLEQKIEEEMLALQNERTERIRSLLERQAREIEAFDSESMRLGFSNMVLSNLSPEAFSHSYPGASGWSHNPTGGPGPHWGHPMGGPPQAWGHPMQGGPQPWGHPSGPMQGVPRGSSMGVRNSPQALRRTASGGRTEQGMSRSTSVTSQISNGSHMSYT

Another assay concerns the target ROCK-II(h) (Homo sapiens, UniProt O75116). Conditions: 100 μM.
The next assay deals with T2, GRK7(h) (Homo sapiens, UniProt Q8WTQ7).
T2 sequence (Q8WTQ7 1-553): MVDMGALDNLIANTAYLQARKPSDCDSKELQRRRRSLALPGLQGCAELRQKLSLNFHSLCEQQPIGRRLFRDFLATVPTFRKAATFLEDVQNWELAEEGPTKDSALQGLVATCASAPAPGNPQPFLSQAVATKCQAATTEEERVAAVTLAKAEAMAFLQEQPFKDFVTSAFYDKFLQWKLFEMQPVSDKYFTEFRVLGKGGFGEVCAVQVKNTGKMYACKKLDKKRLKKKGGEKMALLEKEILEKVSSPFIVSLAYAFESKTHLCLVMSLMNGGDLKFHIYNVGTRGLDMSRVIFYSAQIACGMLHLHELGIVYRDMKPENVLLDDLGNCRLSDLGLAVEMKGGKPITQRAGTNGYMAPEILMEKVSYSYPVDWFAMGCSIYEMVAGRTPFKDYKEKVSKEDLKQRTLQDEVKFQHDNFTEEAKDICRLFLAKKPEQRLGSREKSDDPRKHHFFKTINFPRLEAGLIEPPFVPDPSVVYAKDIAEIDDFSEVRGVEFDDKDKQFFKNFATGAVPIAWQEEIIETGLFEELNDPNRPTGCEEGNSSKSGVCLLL
Conditions: 100 μM.

For a further assay, the target named is Flt1(h) (Homo sapiens, UniProt P17948). The conditions noted are these: 100 μM.
Sequence of Flt1(h) (P17948 27-1338): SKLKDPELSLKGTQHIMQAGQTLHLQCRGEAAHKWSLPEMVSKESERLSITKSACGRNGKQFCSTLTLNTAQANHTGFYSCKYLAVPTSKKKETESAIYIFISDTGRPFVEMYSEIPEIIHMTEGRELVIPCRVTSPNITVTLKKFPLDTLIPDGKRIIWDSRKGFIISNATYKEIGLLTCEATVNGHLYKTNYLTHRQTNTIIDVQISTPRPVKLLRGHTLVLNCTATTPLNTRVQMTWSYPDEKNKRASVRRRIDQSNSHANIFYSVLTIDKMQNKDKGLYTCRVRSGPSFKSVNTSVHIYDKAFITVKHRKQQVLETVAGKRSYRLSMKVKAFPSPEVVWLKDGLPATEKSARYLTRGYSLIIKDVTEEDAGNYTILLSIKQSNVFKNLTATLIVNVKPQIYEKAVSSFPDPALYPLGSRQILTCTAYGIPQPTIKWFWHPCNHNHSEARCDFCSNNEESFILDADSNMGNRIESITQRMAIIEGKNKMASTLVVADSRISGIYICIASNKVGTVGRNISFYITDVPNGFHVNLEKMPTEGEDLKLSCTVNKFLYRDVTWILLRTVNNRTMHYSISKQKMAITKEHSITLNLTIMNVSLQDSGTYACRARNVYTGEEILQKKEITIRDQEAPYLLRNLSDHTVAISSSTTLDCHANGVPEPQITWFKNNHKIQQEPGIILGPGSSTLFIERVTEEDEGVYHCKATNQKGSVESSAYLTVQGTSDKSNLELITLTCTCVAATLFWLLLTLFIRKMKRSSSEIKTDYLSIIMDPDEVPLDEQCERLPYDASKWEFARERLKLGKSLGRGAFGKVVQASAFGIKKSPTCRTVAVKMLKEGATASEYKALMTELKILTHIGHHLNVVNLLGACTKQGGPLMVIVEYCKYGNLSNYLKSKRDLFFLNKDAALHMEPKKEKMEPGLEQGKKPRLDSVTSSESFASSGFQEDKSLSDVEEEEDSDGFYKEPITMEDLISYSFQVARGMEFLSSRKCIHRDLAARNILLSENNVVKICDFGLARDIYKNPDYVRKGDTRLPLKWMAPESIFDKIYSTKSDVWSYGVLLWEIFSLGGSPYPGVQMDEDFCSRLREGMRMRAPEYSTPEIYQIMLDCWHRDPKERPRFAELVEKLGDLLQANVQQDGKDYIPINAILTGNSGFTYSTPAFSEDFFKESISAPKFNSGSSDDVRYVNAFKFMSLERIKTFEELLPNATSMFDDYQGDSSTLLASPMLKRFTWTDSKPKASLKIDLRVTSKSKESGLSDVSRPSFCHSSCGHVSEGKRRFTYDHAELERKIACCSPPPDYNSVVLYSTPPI
The target of another assay is Lyn(h) (Homo sapiens, UniProt P07948). The conditions noted are these: 100 μM.
Sequence of Lyn(h) (P07948 whole entry): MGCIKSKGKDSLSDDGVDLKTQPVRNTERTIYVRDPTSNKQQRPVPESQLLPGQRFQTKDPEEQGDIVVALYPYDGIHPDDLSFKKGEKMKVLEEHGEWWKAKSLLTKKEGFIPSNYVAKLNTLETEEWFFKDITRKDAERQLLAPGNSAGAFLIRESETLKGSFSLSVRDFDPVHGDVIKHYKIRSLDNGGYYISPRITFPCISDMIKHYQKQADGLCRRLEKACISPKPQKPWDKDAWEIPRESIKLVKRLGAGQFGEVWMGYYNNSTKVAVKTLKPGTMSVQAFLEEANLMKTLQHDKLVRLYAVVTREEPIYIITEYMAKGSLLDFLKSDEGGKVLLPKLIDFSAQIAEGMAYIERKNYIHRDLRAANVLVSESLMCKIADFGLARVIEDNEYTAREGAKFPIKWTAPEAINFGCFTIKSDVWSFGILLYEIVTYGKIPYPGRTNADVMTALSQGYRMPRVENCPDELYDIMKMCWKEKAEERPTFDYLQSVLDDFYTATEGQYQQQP
The target in the next assay is PKCα(h) (Homo sapiens, UniProt P17252). Conditions: 100 μM.
Another assay has as its target Fyn(h) (Homo sapiens, UniProt P06241). The conditions noted are these: 100 μM.
The next assay concerns the target Lck(h) activated (Homo sapiens, UniProt P06239). The conditions noted are these: 100 μM.
Another assay has as its target PDGFRβ(h) (Homo sapiens, UniProt P09619). Conditions: 100 μM.
Another assay has as its target CDK5/p35(h) (Homo sapiens, UniProt Q00535). The conditions noted are these: 100 μM.
The target of another assay is Ret(V804L)(h) (Homo sapiens, UniProt P07949, V804L). The conditions noted are these: 100 μM.
A further assay concerns the target CDK7/cyclinH/MAT1(h) (Homo sapiens, UniProt P50613). The conditions noted are these: 100 μM.
The target of a further assay is Aurora-B(h) (Homo sapiens, UniProt Q96GD4). Conditions: 100 μM.
In the next assay the target is Met(D1246N)(h) (Homo sapiens, UniProt P08581, D1228N). Conditions: 100 μM.
For another assay, the target named is NEK6(h) (Homo sapiens, UniProt Q9HC98). The conditions noted are these: 100 μM.

Sequence of FGFR1(V561M)(h) (P11362 22-822 V561M): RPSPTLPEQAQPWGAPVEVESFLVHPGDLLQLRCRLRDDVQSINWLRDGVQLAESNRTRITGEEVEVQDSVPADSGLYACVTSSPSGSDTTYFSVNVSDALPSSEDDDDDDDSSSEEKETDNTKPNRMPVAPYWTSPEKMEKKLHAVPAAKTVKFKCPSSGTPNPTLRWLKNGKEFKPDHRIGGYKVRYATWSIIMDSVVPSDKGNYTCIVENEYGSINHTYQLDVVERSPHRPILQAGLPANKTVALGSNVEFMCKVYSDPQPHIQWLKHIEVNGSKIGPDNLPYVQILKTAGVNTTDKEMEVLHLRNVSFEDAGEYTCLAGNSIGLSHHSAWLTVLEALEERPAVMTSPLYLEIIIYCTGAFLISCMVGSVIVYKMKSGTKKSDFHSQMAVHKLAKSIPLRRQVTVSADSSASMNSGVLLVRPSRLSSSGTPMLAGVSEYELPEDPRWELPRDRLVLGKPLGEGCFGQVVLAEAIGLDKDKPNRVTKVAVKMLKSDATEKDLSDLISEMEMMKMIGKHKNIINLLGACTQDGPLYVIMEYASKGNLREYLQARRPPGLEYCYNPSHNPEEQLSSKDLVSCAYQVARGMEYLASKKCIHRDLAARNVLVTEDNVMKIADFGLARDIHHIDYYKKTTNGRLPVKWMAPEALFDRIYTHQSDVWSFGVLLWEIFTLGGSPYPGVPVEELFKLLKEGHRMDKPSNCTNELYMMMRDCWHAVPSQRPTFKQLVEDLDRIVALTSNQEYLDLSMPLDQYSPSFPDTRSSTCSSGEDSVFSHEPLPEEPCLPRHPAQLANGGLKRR
Sequence of MRCKα(h) (Q5VT25 whole entry): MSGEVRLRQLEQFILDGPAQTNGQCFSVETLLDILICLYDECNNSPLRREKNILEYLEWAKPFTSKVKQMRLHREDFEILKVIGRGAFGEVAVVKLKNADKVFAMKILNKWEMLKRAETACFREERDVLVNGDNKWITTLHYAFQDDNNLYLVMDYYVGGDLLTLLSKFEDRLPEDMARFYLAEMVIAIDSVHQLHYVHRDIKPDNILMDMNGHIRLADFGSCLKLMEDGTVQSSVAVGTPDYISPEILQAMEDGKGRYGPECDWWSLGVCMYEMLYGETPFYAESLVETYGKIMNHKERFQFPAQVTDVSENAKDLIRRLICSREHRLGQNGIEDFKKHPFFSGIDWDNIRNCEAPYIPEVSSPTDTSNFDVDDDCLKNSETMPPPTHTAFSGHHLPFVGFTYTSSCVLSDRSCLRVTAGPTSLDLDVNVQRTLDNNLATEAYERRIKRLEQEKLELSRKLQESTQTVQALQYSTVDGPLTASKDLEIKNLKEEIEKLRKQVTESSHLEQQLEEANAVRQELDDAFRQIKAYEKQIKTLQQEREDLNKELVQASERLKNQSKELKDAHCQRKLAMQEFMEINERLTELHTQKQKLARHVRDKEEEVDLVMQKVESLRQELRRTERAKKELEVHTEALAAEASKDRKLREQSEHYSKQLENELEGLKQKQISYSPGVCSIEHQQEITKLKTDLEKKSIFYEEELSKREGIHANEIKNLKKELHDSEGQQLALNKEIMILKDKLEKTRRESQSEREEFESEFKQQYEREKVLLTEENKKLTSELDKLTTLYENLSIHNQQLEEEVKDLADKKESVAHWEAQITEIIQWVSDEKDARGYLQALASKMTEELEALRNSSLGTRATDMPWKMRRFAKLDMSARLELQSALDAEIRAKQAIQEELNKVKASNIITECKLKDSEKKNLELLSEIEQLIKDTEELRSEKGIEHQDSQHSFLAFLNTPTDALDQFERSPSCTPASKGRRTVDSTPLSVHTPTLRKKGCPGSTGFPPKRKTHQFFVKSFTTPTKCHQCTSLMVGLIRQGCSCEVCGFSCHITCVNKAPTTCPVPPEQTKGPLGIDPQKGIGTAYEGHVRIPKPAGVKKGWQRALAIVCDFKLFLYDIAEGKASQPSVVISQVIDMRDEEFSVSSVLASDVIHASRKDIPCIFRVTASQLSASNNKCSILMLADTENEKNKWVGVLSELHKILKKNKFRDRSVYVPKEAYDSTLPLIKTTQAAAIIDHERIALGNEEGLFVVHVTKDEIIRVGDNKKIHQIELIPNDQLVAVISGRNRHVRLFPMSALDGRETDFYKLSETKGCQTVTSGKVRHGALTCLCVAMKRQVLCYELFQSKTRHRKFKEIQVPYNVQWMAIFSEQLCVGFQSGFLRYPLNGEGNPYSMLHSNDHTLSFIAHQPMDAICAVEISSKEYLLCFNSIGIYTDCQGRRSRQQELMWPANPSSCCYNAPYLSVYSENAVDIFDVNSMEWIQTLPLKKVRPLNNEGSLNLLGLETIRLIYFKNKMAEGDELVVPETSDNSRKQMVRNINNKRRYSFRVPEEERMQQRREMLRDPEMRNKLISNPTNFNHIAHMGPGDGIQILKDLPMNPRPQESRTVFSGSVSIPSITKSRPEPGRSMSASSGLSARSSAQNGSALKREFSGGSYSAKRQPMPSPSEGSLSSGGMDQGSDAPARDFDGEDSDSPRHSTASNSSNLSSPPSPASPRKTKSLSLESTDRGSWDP

On to H-YARAAARQARAKALARQLGVAA-OH [MMI-0100], for which the activity at 100 µM on IR(h), activated worked out at 127%; at Fms(Y969C)(h) it was 126%; at MRCKα(h) it was 98%; on TrkA(h) it was 74%; on FGFR1(V561M)(h) it was 108%; at HIPK1(h) it was 94%. For the same substance, at TAO1(h), the activity at 100 µM turned out to be 99%.

Turning to “HRRIKAWLKKIKALARQLGVAA (Mammalian) [MMI-0500]”, the “% activity” value in the assay with IR(h), activated (100 μM) is reported as 90%; with ROCK-II(h) it was 2%; with GRK7(h), 93%; with MRCKα(h) (100 μM), 5%; in the assay with Flt1(h), 27%; with Lyn(h) it was 31%. Further, the “% activity” value is listed as 3% with PKCα(h); 83% in the assay with Fyn(h); 76% with Lck(h) activated; 24% with TrkA(h) (100 μM); 40% with PDGFRβ(h); 59% in the assay with CDK5/p35(h). For the same substance, the “% activity” value with Ret(V804L)(h) came out at 20%; in the assay with CDK7/cyclinH/MAT1(h) it was 15%; in the assay with HIPK1(h) (100 μM) it was 47%; with Aurora-B(h) it was 5%; with Met(D1246N)(h), 90%; in the assay with NEK6(h), 49%. Also, the “% activity” value with TAO1(h) (100 μM) came to 24%.

“YARAAARQARAKALNRQLGVA (Mammalian) [MMI-0200]”: the “% activity” value is reported as 85% in the assay with ROCK-II(h); 88% with Fms(Y969C)(h) (100 μM); 124% with GRK7(h); 96% with Flt1(h); 98% with Lyn(h); 100% with PKCα(h). In addition, the “% activity” value is on record as 75% with Fyn(h); 90% with Lck(h) activated; 137% in the assay with PDGFRβ(h); 92% with CDK5/p35(h); 100% with Ret(V804L)(h); 67% in the assay with CDK7/cyclinH/MAT1(h). Further, the “% activity” value in the assay with FGFR1(V561M)(h) (100 μM) is recorded as 72%; with Aurora-B(h), 166%; with Met(D1246N)(h), 149%; in the assay with NEK6(h), 98%.
